# T1: rhesus recombinant CD70 (FLAG-TNC-rhesus CD70) (rhesus macaque (Macaca mulatta), UniProt F7GPA5 174-316)
# T1 construct: also called rhesus Flag-TNC-CD70; Rhesus monkey; not shown: Flag tag and TNC trimerisation domain
# T1 sequence: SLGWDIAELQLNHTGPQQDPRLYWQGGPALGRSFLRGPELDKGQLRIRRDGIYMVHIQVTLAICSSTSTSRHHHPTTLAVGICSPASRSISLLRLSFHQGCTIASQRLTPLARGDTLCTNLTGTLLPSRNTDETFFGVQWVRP
# B1: 59D10 Fab (Fab, V domains shown)
# VH: EVQLVESGGGLVQPGGSLRLSCAASELSFSISEMTWVRQAPGKGLEWVSGISGVTGGSSTSYADSVKGRFTISRDNDKNTLYLQMNSLIPEDTAVYYCATTSGTYYFIPEYEYWGQGTQVTVSS
# VL: QSVLTQPPSVSGSPGKTVTISCAGTSSDVGYGYYVSWYQQFPGMAPKLLIYDVNKRASGIADRFSGSKAGNTASLTISGLQSEDEADYYCASYRSSANAVFGGGTHLTVLG
# notes: Llama-derived Fab from phage display; MYC tag at C-terminus of Fd
# B2: ARGX-110 (non-fucosylated human IgG1 of germlined 27B3 clone 41D12) (antibody, V domains shown)
# VH: EVQLVESGGGLVQPGGSLRLSCAASGFTFSVYYMNWVRQAPGKGLEWVSDINNEGGTTYYADSVKGRFTISRDNSKNSLYLQMNSLRAEDTAVYYCARDAGYSNHVPIFDSWGQGTLVTVSS
# VL: QAVVTQEPSLTVSPGGTVTLTCGLKSGSVTSDNFPTWYQQTPGQAPRLLIYNTNTRHSGVPDRFSGSILGNKAALTITGAQADDEAEYFCALFISNPSVEFGGGTQLTVLG
# notes: also called ARGX-100; 41D12 (ARGX-110)
# Legend:
# [1] = biological target: T1, rhesus recombinant CD70 …; experiment: Biacore off-rate, Fab over immobilised rhesus CD70
# [2] = biological target: cynomolgus monkey Flag-TNC-CD70 (cynomolgus monkey); experiment: CD27-CD70 inhibition ELISA, cynomolgus Flag-TNC-CD70
# [3] = biological target: T1, rhesus recombinant CD70 …; experiment: CD27-CD70 inhibition ELISA, rhesus Flag-TNC-CD70
# Protocol: In this assay, a microtiter plate (Nunc Maxisorb) was first coated with 100 µl anti-FLAG M2 monoclonal antibody (Sigma Aldrich, F3165) at 1250-fold dilution in PBS (to achieve a final concentration of approximately 3.5 µg/ml) overnight at 4° C. The plate was washed once with PBS-Tween and incubated at RT for 2 hours with 300 µl PBS-1% casein. The plate was washed a further three times with PBS-Tween. 100 µl of 5 ng/ml (80 pM) Flag-TNC-CD70 (The Journal of Immunology, 2009, 183: 1851-1861) diluted in PBS-0.1% casein was added to the plate and incubated at RT for 1 hour while shaking. The plate was washed five times with PBS-Tween. The CD70 mAb to be tested was added to the plate; various concentrations were achieved by diluting the stock antibody solution in PBS-0.1% casein. Immediately thereafter, 50 µl of 1 µg/ml (final concentration 6.5 nM) recombinant human CD27 Fc chimera (R&D systems 382-CD, MW = 46.5 kDa) was added, and incubated at RT for 1 hour while shaking. The plate was washed five times with PBS Tween. 100 µl of biotinylated anti-CD27 (eBioscience 13-0271), diluted 500-fold in PBS-0.1% casein, was added, and the plate incubated at RT for a further hour, while shaking. The plate was washed five times with PBS Tween. […] 100 µl TMB was added to the plate and the OD at 620 nm was measured. […]
Binder,binding result [1],IC50 [2],IC50 [3]
B1,no binding,–,–
B2,–,0.048 µg/mL,0.075 µg/mL
